The supplement of paper PMC10065799, “High-throughput profiling of sequence recognition by tyrosine kinases and SH2 domains using bacterial peptide display” (eLife, 2023)

Experiments:
c-Src SH2 = experiment: SH2 binding enrichment of the phosphorylated peptide, bacterial display (enrichment ratio); higher = better substrate or ligand; peptides without Tyr show the background
SHP2-C SH2 = experiment: as above
Grb2 SH2 = Grb2 SH2 (UniProt P62993); experiment: as above
AncSZ = experiment: phosphorylation enrichment, bacterial display (enrichment ratio); higher = better substrate or ligand; peptides without Tyr show the background
FGFR1 = FGFR1 (UniProt P11362); experiment: as above
MERTK = MERTK (UniProt Q12866); experiment: as above
EPHB2 = EPHB2 (UniProt P29323); experiment: as above
Fes = Fes (UniProt P07332); experiment: as above
c-Src = experiment: as above
Jak2 = Jak2 (UniProt O60674); experiment: as above
FGFR3 = FGFR3 (UniProt P22607); experiment: as above
EPHB1 = EPHB1 (UniProt P54762); experiment: as above
c-Abl (mouse) = experiment: as above
Fyn = Fyn (UniProt P06241); experiment: as above
Fer (mouse) = experiment: as above
Hck = Hck (UniProt P08631); experiment: as above
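Wherever SH2 binding enrichment of the phosphorylated peptide, bacterial display is given: peptide library displayed on the E. coli surface as eCPX fusions, selected cells deep-sequenced, score is each peptide's frequency after selection divided by its frequency in the input.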
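Wherever phosphorylation enrichment, bacterial display is given: 11-residue human phosphosite peptides and single-mutation variants displayed on the E. coli surface, counted by deep sequencing, each peptide's frequency after selection divided by its frequency in the unselected input library; frequency after pTyr selection over input frequency; kinase dosed for 20-30% of maximal phosphorylation in three min.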

Fes, sequence (P07332 whole entry, looked up): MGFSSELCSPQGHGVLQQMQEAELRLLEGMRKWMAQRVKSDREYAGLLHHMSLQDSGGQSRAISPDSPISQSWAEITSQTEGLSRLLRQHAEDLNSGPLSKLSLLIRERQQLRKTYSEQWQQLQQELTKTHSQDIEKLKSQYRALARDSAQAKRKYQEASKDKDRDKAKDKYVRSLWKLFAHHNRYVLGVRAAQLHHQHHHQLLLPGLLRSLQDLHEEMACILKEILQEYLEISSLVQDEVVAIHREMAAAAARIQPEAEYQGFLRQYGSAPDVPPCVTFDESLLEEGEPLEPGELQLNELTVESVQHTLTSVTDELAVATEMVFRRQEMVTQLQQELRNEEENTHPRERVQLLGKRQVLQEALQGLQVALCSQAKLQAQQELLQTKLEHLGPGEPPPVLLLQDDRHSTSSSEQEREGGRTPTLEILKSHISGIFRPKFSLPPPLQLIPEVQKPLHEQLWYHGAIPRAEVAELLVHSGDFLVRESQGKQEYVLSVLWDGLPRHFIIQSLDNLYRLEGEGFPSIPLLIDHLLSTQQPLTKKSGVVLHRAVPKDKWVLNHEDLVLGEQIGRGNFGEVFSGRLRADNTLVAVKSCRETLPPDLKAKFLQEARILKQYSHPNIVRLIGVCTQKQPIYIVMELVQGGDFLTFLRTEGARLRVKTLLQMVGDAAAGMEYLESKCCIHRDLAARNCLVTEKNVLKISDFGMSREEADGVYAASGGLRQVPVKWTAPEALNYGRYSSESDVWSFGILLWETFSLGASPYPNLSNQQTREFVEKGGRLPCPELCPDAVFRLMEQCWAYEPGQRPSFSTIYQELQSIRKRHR
Hck, sequence (P08631 whole entry, looked up, the tested form may be a part): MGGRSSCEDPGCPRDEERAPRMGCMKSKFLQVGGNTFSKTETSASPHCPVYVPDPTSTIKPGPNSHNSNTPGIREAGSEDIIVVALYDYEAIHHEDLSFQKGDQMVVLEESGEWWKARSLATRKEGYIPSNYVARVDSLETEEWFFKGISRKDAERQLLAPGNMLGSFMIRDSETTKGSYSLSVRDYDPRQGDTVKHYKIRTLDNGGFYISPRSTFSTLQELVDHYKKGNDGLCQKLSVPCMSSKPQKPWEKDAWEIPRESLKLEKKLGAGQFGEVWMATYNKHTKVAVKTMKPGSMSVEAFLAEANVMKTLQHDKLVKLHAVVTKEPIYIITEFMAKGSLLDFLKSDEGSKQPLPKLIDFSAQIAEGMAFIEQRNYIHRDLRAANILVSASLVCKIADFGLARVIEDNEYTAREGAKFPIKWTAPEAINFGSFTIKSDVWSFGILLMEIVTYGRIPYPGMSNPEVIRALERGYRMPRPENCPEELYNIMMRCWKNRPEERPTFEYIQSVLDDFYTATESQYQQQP
Grb2 SH2, sequence (P62993 whole entry, looked up): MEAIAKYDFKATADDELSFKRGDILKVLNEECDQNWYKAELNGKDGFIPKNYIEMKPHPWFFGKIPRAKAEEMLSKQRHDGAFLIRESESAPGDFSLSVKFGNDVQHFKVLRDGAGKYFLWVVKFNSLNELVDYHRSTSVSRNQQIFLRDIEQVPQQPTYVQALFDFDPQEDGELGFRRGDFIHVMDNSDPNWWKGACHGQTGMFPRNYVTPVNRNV
Jak2, sequence (O60674 whole entry, looked up): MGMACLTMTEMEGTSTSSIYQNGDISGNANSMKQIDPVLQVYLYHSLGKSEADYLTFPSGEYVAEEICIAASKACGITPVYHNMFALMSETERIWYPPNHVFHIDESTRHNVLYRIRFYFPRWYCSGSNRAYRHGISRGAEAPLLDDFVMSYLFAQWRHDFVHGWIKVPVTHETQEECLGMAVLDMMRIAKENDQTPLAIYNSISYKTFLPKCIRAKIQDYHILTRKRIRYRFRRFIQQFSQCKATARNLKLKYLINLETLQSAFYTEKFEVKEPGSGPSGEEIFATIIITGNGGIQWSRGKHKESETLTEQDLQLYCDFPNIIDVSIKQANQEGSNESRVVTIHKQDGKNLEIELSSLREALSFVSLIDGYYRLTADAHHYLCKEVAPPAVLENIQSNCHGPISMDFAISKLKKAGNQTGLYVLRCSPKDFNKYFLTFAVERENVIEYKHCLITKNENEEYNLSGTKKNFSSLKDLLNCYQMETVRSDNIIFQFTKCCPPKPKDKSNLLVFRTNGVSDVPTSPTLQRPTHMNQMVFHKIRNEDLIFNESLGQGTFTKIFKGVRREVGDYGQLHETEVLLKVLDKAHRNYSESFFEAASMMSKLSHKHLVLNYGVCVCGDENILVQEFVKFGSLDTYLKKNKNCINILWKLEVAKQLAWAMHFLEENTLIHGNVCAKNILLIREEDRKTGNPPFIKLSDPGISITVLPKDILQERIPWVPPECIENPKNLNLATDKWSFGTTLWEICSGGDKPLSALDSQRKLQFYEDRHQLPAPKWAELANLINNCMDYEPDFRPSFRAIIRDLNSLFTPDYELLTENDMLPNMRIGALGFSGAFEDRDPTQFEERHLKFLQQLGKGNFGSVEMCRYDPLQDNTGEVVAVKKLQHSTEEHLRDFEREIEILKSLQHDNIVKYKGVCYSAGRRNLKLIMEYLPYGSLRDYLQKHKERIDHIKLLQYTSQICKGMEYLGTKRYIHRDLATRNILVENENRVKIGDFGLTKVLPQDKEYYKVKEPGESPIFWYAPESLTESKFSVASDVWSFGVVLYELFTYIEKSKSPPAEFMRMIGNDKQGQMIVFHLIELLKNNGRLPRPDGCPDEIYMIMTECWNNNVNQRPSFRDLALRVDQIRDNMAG
FGFR3, sequence (P22607 whole entry, looked up): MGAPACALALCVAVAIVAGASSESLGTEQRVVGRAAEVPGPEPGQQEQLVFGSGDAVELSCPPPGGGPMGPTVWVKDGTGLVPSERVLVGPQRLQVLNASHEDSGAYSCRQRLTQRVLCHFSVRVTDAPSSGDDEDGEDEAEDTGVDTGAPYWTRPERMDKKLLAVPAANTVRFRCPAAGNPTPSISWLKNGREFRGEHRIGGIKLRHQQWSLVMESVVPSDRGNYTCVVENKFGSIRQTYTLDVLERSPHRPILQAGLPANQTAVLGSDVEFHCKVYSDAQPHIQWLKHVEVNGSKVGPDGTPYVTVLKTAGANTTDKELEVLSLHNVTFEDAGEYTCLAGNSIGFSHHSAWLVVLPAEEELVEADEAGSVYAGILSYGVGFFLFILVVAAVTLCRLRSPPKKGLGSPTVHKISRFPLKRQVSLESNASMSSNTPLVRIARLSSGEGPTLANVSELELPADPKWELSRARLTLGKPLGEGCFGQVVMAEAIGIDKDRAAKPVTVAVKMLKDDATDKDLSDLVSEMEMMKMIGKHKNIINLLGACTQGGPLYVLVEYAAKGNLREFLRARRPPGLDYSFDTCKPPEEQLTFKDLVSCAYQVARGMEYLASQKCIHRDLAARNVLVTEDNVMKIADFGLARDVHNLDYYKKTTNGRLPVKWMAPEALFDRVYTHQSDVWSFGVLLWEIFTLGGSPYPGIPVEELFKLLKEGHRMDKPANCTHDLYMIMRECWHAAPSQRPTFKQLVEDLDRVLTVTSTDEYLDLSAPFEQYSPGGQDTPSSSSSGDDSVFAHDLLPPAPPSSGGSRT
EPHB2, sequence (P29323 whole entry, looked up): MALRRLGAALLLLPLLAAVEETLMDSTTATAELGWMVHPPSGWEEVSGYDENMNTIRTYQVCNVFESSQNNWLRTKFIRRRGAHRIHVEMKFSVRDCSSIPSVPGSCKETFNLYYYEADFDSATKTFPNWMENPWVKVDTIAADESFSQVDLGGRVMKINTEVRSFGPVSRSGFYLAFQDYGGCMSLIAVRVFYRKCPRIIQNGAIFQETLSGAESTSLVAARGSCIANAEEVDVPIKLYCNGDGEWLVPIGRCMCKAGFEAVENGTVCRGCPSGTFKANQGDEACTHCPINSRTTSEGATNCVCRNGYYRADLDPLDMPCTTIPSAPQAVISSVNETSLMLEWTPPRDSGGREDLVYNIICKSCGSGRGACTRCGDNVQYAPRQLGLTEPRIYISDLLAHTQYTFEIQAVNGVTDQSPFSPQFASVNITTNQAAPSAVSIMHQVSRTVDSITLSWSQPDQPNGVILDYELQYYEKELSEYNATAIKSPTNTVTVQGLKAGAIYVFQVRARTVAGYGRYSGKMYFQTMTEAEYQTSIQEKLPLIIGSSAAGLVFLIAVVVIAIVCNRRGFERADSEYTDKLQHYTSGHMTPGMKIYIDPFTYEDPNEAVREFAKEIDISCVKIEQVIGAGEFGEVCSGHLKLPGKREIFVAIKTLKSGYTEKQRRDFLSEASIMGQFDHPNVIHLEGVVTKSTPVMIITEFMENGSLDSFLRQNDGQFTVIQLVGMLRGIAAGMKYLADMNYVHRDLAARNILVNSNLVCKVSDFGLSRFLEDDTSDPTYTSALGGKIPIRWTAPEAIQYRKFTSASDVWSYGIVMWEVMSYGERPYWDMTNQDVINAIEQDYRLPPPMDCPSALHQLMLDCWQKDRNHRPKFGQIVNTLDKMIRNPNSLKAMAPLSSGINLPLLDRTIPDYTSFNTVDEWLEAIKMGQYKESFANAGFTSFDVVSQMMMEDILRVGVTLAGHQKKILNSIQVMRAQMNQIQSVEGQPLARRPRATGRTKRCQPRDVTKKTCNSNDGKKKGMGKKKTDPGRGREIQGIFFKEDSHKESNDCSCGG

| Sequence | SH2 binding enrichment (c-Src SH2) | SH2 binding enrichment (SHP2-C SH2) | SH2 binding enrichment (Grb2 SH2) | phosphorylation enrichment (AncSZ) | phosphorylation enrichment (FGFR1) | phosphorylation enrichment (MERTK) | phosphorylation enrichment (EPHB2) | phosphorylation enrichment (Fes) | phosphorylation enrichment (c-Src) | phosphorylation enrichment (Jak2) | phosphorylation enrichment (FGFR3) | phosphorylation enrichment (EPHB1) | phosphorylation enrichment (c-Abl (mouse)) | phosphorylation enrichment (Fyn) | phosphorylation enrichment (Fer (mouse)) | phosphorylation enrichment (Hck) |
| --- | --- | --- | --- | --- | --- | --- | --- | --- | --- | --- | --- | --- | --- | --- | --- | --- |
| VMTVDYSKTVV [SETD2_Y770] | 0.528 | 1.19 | 0.937 | 0.638 | 0.456 | 0.35 | 0.417 | 0.749 | 0.319 | 0.615 | 0.485 | 0.379 | 0.574 | 0.451 | 0.493 | 0.434 |
| DGSALYTGSAL [COL6A3_Y524] | 0.382 | 0.641 | 0.713 | 0.612 | 0.313 | 0.404 | 0.439 | 0.638 | 0.536 | 0.591 | 0.474 | 0.418 | 0.459 | 0.84 | 0.643 | 0.858 |
| CSEEMYCLMLQ [RET_Y981_R982C] | 0.722 | 0.949 | 0.943 | 3.36 | 3.5 | 4.4 | 0.794 | 1.3 | 2.26 | 1.22 | 2.76 | 1.02 | 1.25 | 1.08 | 6.9 | 1.31 |
| TYVKSYTIHYS [F5_Y2153_M2148T] | 0.652 | 0.783 | 0.791 | 1.27 | 0.4 | 0.483 | 0.722 | 1.15 | 0.44 | 0.633 | 0.696 | 0.594 | 0.625 | 0.508 | 0.568 | 0.567 |
| WLFFRYLPIGC [ATP2A2_Y836_A838P] | 0.796 | 1.36 | 1.26 | 1.29 | 0.538 | 0.415 | 0.531 | 1.3 | 0.345 | 1.14 | 0.778 | 0.529 | 0.657 | 0.38 | 0.559 | 0.477 |
| VEDPEYAVTQP [STOML2_Y124_L129P] | 0.504 | 0.666 | 0.877 | 1.54 | 0.646 | 0.473 | 0.602 | 1.33 | 0.58 | 1.32 | 0.848 | 0.567 | 1 | 0.543 | 0.664 | 0.608 |
| RWGQKYMTAVV [CYBA_Y72] | 0.948 | 0.698 | 1.57 | 0.731 | 0.654 | 0.452 | 0.783 | 0.665 | 0.312 | 0.409 | 0.884 | 0.494 | 0.328 | 0.488 | 0.568 | 0.609 |
| AEMKRYSESSS [RAI14_Y869_A870S] | 0.541 | 0.767 | 0.744 | 0.524 | 0.681 | 0.337 | 0.329 | 0.638 | 0.382 | 0.678 | 0.523 | 0.308 | 0.43 | 0.503 | 0.38 | 0.37 |
| EFTPLYPMLFG [SCLY_Y280] | 0.504 | 4.07 | 0.993 | 1.01 | 12.8 | 2.6 | 0.695 | 1.12 | 0.475 | 1.64 | 9.26 | 0.59 | 0.849 | 0.547 | 0.458 | 0.515 |
| EAVKNYTDKRG [PBRM1_Y672] | 0.516 | 0.567 | 0.866 | 0.56 | 0.418 | 0.478 | 0.498 | 0.653 | 0.433 | 0.56 | 0.459 | 0.484 | 0.489 | 0.421 | 0.41 | 0.38 |
| CTTIHYNYMRN [TP53_Y234_C238R] | 1.83 | 1.31 | 1.17 | 0.805 | 0.521 | 0.468 | 0.502 | 0.858 | 0.501 | 0.673 | 0.577 | 0.605 | 0.515 | 0.52 | 0.543 | 0.546 |
| GKFHMYVAVWT [F13A1_Y161_R159H] | 0.535 | 0.825 | 1.03 | 1.18 | 0.516 | 0.351 | 0.479 | 1.1 | 0.368 | 1.06 | 0.669 | 0.491 | 1.45 | 0.407 | 0.445 | 0.498 |
| QYRFIYMAVQH [PTPN11_Y515] | 0.693 | 0.713 | 1.2 | 1.32 | 0.667 | 0.729 | 0.947 | 1.22 | 1.93 | 1.21 | 1.48 | 1.52 | 0.973 | 1.82 | 1.29 | 2.21 |
| HNVPIYEGFAL [ACTA1_Y168_YF] | 0.431 | 0.794 | 0.849 | 1.59 | 0.649 | 12.4 | 28.1 | 7.74 | 10.6 | 0.894 | 0.785 | 22.5 | 23.5 | 15.1 | 22.7 | 14.1 |
| PVQAAYQNVVA [HBB_Y131_K133N] | 3.07 | 1.49 | 34.4 | 0.931 | 0.699 | 0.591 | 0.567 | 0.877 | 0.49 | 0.645 | 0.692 | 0.915 | 0.591 | 0.644 | 0.98 | 0.536 |
| PLRANYLIARV [HLCS_Y635_D634N] | 0.992 | 1.29 | 1.27 | 0.927 | 0.707 | 0.716 | 0.861 | 1.12 | 1.01 | 1.27 | 0.853 | 1.12 | 2.74 | 0.769 | 0.7 | 0.763 |
| QNTGYYYDLYG [PTPN11_Y62_D61Y] | 6.14 | 2.18 | 1.54 | 1.9 | 21.1 | 15.6 | 17.9 | 1.96 | 7.11 | 8.69 | 17.8 | 18.4 | 1.25 | 7.01 | 4.32 | 9.49 |
| NGPDVYVLPLT [AATK_Y93] | 0.552 | 0.743 | 0.804 | 1.33 | 0.685 | 1.69 | 0.511 | 0.792 | 1.04 | 0.8 | 0.613 | 0.626 | 0.645 | 2.32 | 0.414 | 0.671 |
| RKKLFYKADGE [SERPINC1_Y272_E269K] | 0.338 | 0.628 | 0.733 | 0.624 | 0.528 | 0.531 | 0.579 | 0.648 | 0.778 | 0.732 | 0.473 | 0.34 | 0.894 | 0.621 | 0.587 | 0.657 |
| NVPILYTASQA [CTNNA1_Y222] | 0.435 | 0.628 | 0.762 | 0.553 | 0.464 | 0.687 | 0.449 | 0.597 | 0.418 | 0.688 | 0.501 | 0.432 | 0.576 | 0.421 | 0.472 | 0.444 |
| KDGIGYISAAE [CALM2_Y100_N98I] | 0.598 | 0.686 | 1.07 | 0.635 | 0.476 | 0.476 | 0.424 | 0.763 | 0.427 | 0.589 | 0.517 | 0.393 | 0.557 | 0.466 | 0.464 | 0.454 |
| TEYIQYMRRKN [MAX_Y73] | 0.473 | 0.737 | 0.462 | 0.734 | 0.7 | 0.545 | 0.528 | 0.615 | 0.491 | 0.718 | 0.609 | 0.404 | 0.546 | 0.468 | 0.523 | 0.7 |
| EFGEVYKGMLK [EPHA2_Y628] | 0.553 | 0.838 | 1.11 | 0.503 | 0.439 | 0.367 | 0.441 | 0.579 | 0.481 | 0.394 | 0.526 | 0.343 | 0.377 | 0.422 | 0.411 | 0.454 |
| QCTSHYPEHVC [SART3_Y541_D540H] | 0.699 | 0.795 | 0.966 | 1.03 | 0.727 | 0.417 | 0.747 | 0.991 | 0.34 | 0.766 | 0.677 | 0.458 | 0.585 | 0.666 | 0.393 | 0.633 |
| CEHRGCLYLAI [TEK_Y897_Y897C] | 0.554 | 0.753 | 0.811 | 1.04 | 0.405 | 0.661 | 0.506 | 1.09 | 1.05 | 1.05 | 0.685 | 0.556 | 0.671 | 0.372 | 0.44 | 0.466 |
| LNEAVYTKMMT [G6PD_Y401_P396L] | 1.61 | 0.414 | 0.659 | 1.9 | 1.38 | 3.19 | 1.8 | 2.05 | 5.76 | 1.15 | 1.29 | 1.76 | 0.881 | 5.35 | 16.1 | 6.11 |
| KPGLVYNKVNP [SPRED3_Y72] | 0.815 | 0.788 | 0.951 | 0.704 | 0.383 | 0.402 | 0.395 | 0.595 | 0.539 | 0.936 | 0.453 | 0.413 | 0.675 | 0.424 | 0.409 | 0.603 |
| VFFFSYLLKNH [PTEN_Y180_YF] | 0.616 | 0.896 | 0.982 | 1.06 | 0.643 | 0.362 | 0.519 | 1.57 | 0.426 | 1.11 | 0.729 | 0.559 | 0.918 | 0.373 | 0.537 | 0.391 |
| RPGGRYPVARR [SHANK3_Y1569_S1566G] | 0.492 | 0.433 | 0.749 | 0.734 | 0.648 | 0.775 | 0.563 | 0.899 | 0.664 | 0.478 | 0.599 | 0.468 | 0.657 | 0.647 | 0.667 | 0.626 |
